The nature of the data set: yeast display, Sf9 membrane polyspecificity reagent, FACS + sequencing; frameworks hold sequencing errors. The method, boiled down:
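Sorting gates, low and high (top ~1%), were placed on anti-HA fluorescence to track expression and on streptavidin fluorescence to track reagent binding. A clone's polyreactivity label is taken from the gate it came out of. The reagent was 10% biotinylated, detergent-solubilized Sf9 membrane, applied for 1 hour at 4 °C to galactose-induced yeast display cells.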
With “QVQLVESGGGLVQAGGSLRLSCSASGRIFHRYTMGWYRQSPGKEREFVAAITTRAGSTYYADSVKGRFTISRDNAKYTVFLQMNSLKPEDTAVYYCNIRRHSMFGGTTTRYDFWGQGTQVTVSS”, the “polyreactivity (PSR sort gate)” value is reported as “high polyreactivity”. As to “QVQLVESGGGLVQAGGSLRLTCAASGFTINFYAMGGYRQAPGKERELVAAITASGGGSTYYADSVKGRFTISRDNAKNTVYLQMNSLKPEDTAVYYCNADYTGSFYTYDYWGQGTQVTVSS”, the “polyreactivity (PSR sort gate)” value was “low polyreactivity”.

Regarding “QVQLVESGGGLVQAGGSLRLSCAASGRIFYKYAMGWYRPAPGKERELVAAISWSGGRTYYADSVKGRFTISRDNAKNTVYLQMNSLKPEDTAVYYCNAVYAGFLRVRYDYWGQGTQVTVSS”, the “polyreactivity (PSR sort gate)” value was “high polyreactivity”. Next, “QVQLEESGGGLVQAGGSLRLSCAASGSIFLGYAMGWYRQAPGKERELVAAITTVGSTNYADSVKGRFTISRDNAKNTVYLQMNSVKPEDTAVYYCAAGWVGWGEKYTLDYWGQGTQVTVSS”: “high polyreactivity”; “QVQLLESGAGLVQAGGSLRLIWAASGIIIGHYGMGWYRQAPGKERELVAVISSSGGRTYYADSVKGRFTISRDNAKNTVYLQMNSLKPEDTAVYYCNGGPQVRYWQGTYEYWGQGTQVTVSS”: “high polyreactivity”.

“QVQLVESGGGLVQAGGSLRLSCAASGNIFAWYAMGWYRQAPGKERELVADISSRGGSTYYADSVKGRFTISRDNAKNTVYLQMNSLKPEDTAVYYCAAVWYWTQDYDYWGRGTQVTVSS”: the “polyreactivity (PSR sort gate)” value is recorded as “low polyreactivity”.

Turning to “QVQLVESGGGLVQAGGSLRLSCAASGRIFARNAMGWYRQAPGKESELVAAITSSGSTYYADSVKGRFTISRDNAKNSVYLQMNSLKPEDTAVYYCAADGHAYRSNFWGQGTQVTVSS”, the “polyreactivity (PSR sort gate)” value is recorded as “low polyreactivity”.

With “QVQLVESGGGLVQAGGSLRLSCAPSGRTFRYYAMGWYRQAPGKERELVAAINWSGGSTYYADSVKGRFSISRDNAKNAVYLQKNSLKPEDTAVYYCAADEKMYITGYDYWGQGTQVTVSS”, the “polyreactivity (PSR sort gate)” value is recorded as “low polyreactivity”. On to “QVQLVESGGGLVQAGGSLRLSCAASGSTFRYYTMGWYRQAPGKERELVASISRSGSTSYADSVKGRFTISRDNAKNTVYLQMNSLKPEDSAVYYCAGESYFGAYAGYDYWGQGTQVTVSS”, for which the “polyreactivity (PSR sort gate)” value is listed as “low polyreactivity”. The same measure for “QVQLVESGGGLVQAGGSLRLSCAASGSIFRYNAMGWYRQAPGKERELVAAITSGDSTYYADSVKGRFTISRDNAKNTVYLQMNSLKPEDTAVYYCAVTTWANTQWEDYWGHGTQVTVSS”: “low polyreactivity”; for “QVQLVESGGGLVQAGGSLRLTCAASGFIFEEYAKGWYRPAPGKERELVAAISRRGGSTYYADSVKGRFTISRDNATNTVYLQMNSLKPEDTAVDYCATDRRYNYWGQGTQVTVSS”: “high polyreactivity”; for “QVQLVDSGAGLVQAGGSLRLSCAASGRISYVYAMGWYRQAPGKDRELVAGITWSDGSTFYADSVKGSFTISRDNAKNTVYLQMNSLKPEDTAVYYCAARFNRKILGRYYFWGQGTQVTVSS”: “high polyreactivity”. Next, “QVQLVESGGGLVQAGGSLRLSCAASGSTFKYNTMGWYRQAPGKESELVARISWSGTRTYYADSVKGRFTISRYNAKNTVYLQMNSLKPEDTAVYYCAKVSYFWSPYGYDSCGQGTQVTVSS”: “high polyreactivity”; “QVQLVESGAGLVQAGGSLRLSCAASGSTLYRYAMGWYRQAPGKERELVAAISRRGDSTYYADSVKGRFTISRDNAKNTVYLQMNSLKPEDTAVYYCNTARSAGKYDYWGQGTQVTVSS”: “high polyreactivity”; “QVQLVESGGGLVQAGGSLRLSCAASGSTFPYNVMGWYRPAPGKERELVAAISYSGGNTYYADSVKGRFTISRDNAKNTVYLQMNSLKPEDTAVYYCAKARRGGRGSIKYDYWGQGTQVTVSS”: “high polyreactivity”.

For “QVQLVESGGGLVQAGGSLRLSCASSGRTFPGNAMGWYRQAPGKERELVAAISWSGTRTYYADSVKGRFTISRDNAKNTVYLQMNSLKPEDTAVYYCNVVVKGAWDYYPYAYWGQGTQVTVSA”, the “polyreactivity (PSR sort gate)” value is listed as “high polyreactivity”. “QVQLVESGGGLVQAGGSLRISCAASGSTFQGYAMGWYREAPGKERELVAAISGRSGSTYYADSVKGRFTISRDNAKNTVFLTMNSLKPVDSAVYYCNARFNRSRRTYDYWVQGTQVTVSS”: the “polyreactivity (PSR sort gate)” value is given as “high polyreactivity”. The same measure for “QVQLVESGGGLVQAGGSLRLSCAASGNTFNANAMGWYRQAPGKERELVAVISANGGRTYYADSVKGRFTISRDNAKNTVYLQMNSLKPEDTAVYYCATGRYGGQGYPFYYWGQGTQVTVSS”: “low polyreactivity”; for “QVQLVESGGGLVQAGGSLRLSCAASGRTFITNAMGRNRQAPGKERELVARISSDGSTYYADSVKGRFTISRDNAKNTVYLQMNSLKPEDTAVYYCNKEFLRRQLFTFWHLGGYWGQVTQVTVSS”: “low polyreactivity”. Next, “QVQLVESGGGLVQAGGSLRLSCAASGSIFGGYTMGWYRQAPGKERELVAAISARGGNTYYADSVKGRFTISRDNAKNTVYLQMNSLKPEDTAVYYCAKVRYTQSYRVYGYWGQGTQVTVSS”: “high polyreactivity”.

As for “QVQLVESGGGLVQAGGRLRLSCAASGSISWVYAMGWYRQAPGTERELVADITDSGDSTYYADSVKGRFTISRDNAKNTVYLQMHSLKPEDTAVYYSAAPGSRHYYIYWPYNYWGQGTQVTVSS”, the “polyreactivity (PSR sort gate)” value is recorded as “low polyreactivity”.

In the case of “QVQLVESGGGLVQAGGSLRLSCAASVLIFYWYAMGWYRQAPGKERELVAAISSAGSTNYADSVKGRFTISRDNAKNTVYLQMNSLKPEDTAVYYCYARIAYRYSNYGYWGQGTQVTVSS”, the “polyreactivity (PSR sort gate)” value is recorded as “low polyreactivity”.

On to “QVQLVESGGGLVQAGGSLRLSCAASGSIFTWYAMGWYRQAPGKERELVARINVSAGITYYADSVKGRFTISRDNAKNTVYLQMNSLKPEDTAVYYCAATGWRRPKHNYWGQGTQVTVSS”, for which the “polyreactivity (PSR sort gate)” value is “low polyreactivity”. Next, “QVQLVESGGGLVQAGGSLRLSCAASGRIFHYNAMGSYRQAPVKERELVAAISTGGSTNYADSVKGRFTISRDNAKNTVYLQMNSLKPEDTAVYYCAAGPDPLGEDYWGQGTQVTVSS”: “low polyreactivity”; “QVQLQESGGGLVQAGGSLCLSCAASGTIFFDGDMGWYRQAPGKEREFVAAINPGGSAYNADSVKGRLPLAAITHTVYLQMNSLKPEDTAVYYCSAKLFDVYGYYYWGQGTHVTVSS”: “low polyreactivity”. As to “QVQLVESGGGLVQAGGRLRLSCAASGFIFYYNTMGWYRQAPGKERELVAAISSGGRTYYADSVKGRFTISRDNAKNTVYLQMNSLKPEDTAVYYCNVVTYVKYGYWGQGTQVTVSS”, the “polyreactivity (PSR sort gate)” value is given as “high polyreactivity”. Next, “QVQLVESGGGLVQAGGSLRLSCAASGRSFNPYAMGWYRQAPGKERELVAAITNSGGSTYYADSVKVRFTISRDTAMNTFYLQMNSLKPEDTAVYYCNARRYPRYYYWGQGTQVTGSS”: “high polyreactivity”; “QVQLVESGGGLVQAGGSLRLSCAASGRNFGSNTMGWYRQAPGKERELVAAITGDDSTYADSVKGRFTISRDNAKNTVYLQMNSLKPEDTAVYYCAVVWVWDVWFLVYYWGQGTQVTVSS”: “low polyreactivity”; “QVQLVESGGGLVQAGGSLSLSSAASGSTFHRNTMGWYRQAPGKERELVAGISLRGVRTYYADSVKGRFTISRDNAKNSVYLQMNSLKPEDTAVYYCAGGGPYTRNFKLGYWGQGTQVSVSS”: “high polyreactivity”. Next, “QVQLVESGGGLVQAGGSLRLSCAASGFTFGSYAMGWYRQAPGKERELVAAISSRGGSTYYADSVKGRFTISRDNAKNTVYLQMNSLKPEDTAVYYCNAGYGYIKQYPDYQSKYDYWGQGTQVTVSS”: “low polyreactivity”; “QVQLVESGGGLVQAGGSLRLSCAASGGMGWYRQAPGKERELVATISSVGSTNYADSVKGRFTISRDNAKNTVYLQMNSLKPEDTAVYYCIATGVQYFLYGYWGQGTQVTVSS”: “low polyreactivity”; “QVQLVESGGGLVQAGGSLRLSCAASGFTLYSYAMGWYRQAPGKERELVARISRSGGRTYYADSVKGRFTISRDNAKNTVYLQMNSLKPEDTAVYYGNARSLYYSYDYWGQGTQVTVSS”: “high polyreactivity”. The same measure for “QVQLVESVGCLVQAGGSLRLICAASGSIFVDYAMGWYRQAPGKERELVAAISSGGGSTYYADSVKGRFTISRDNSKYTVYLQMNSLKPEDTAVYYCATDLQPRSFLYWYNYWGQGTQVTVSS”: “low polyreactivity”; for “QVQLVESGGGLVQAGGSRRLRCAASGRTFWTYAMGWYRQAPGKEREFVAAISYSGSSTYADSVKGRFTISRDNATNTVYLQMKSLKPEDTAVYFCAAYLYTAVVAYGYVSWGQGTQVTVSS”: “low polyreactivity”; for “QVQLVESGGGLVQAGGSLRLSCASSGSISAVNTMGWYRQAPGKERELVATISYSTASTYYADSVKGRFTMSRDNAKKTVYLQMNSLKPEDTAVYYCNKDGRWYAYNSEYDHWGQGTQVTVSS”: “low polyreactivity”. For the sequence “QVHLVESGGGLVQAGGSLRLSCAASGSIFDYYAMGWYRQAPGKERELVAAITYDSGRTYYADSVKGRFTNSRDNAKNTVYLQMYSLKPEDTAVYYCNKYSYSWRYCPGTSGYDYWGQGTQVTVSS”, the “polyreactivity (PSR sort gate)” value is recorded as “low polyreactivity”.

“QVQLVESGGGLVQAGGSLRISCAASGSNLSPYVMGWYRQAPGKERELVSTISRSGGRTYYADSEKGRFTISRDNAKNTFNLQMNSLKPEDTAVYYCAREDWGSYSDMDSWGQGTQVTVSS”: the “polyreactivity (PSR sort gate)” value is listed as “low polyreactivity”. Next, “QVQLVESGGGLVQAGGSLRLSCAASGSTFHGNAMGWYRQAPGKERELVAAISRSGGSTYYADSVKGRFTISRDNAKNTVYLQMNSLKPEDTAVYYCAADRPYYPLKYDYWGQGTQVTVSS”: “high polyreactivity”.

Consider “QVQLVESGGGLVQAGGSLRLSCAASGITFDYYAMGWYRQAPGKERELVAAISYSGGSTYYADSVKGRFTISRDNAKNTVYLQMNSLKPEDTAVYYCAAETFTISSDYYYWGQGTQVTVSS”, for which the “polyreactivity (PSR sort gate)” value was “low polyreactivity”. The same measure for “QVQLVESGGGLVQAGGSLRLSCAASGSTFYAYALGWYRQAPGKERELVAAISSDGTNYADSVKGRFTISRDNAKNTVYLQMNSLKPVDTAVYYCAADLLLYSSQDNDYWGQGTQVTVSS”: “low polyreactivity”; for “QVQLVESGGGLVQAGGSLRLSCAASGFTFAVYAMGWYRQAPGKERELVAAISRSGTRTYYADSVKGRFTISRDNAKNTVYLQMNSLKPEDTAVYYCAAPWTQILDYWGQGTQVTVSS”: “low polyreactivity”.

The record behind these values is the nanobody polyreactivity screen of Harvey et al. (2022).
